The text below walks through data of patent US20230309566A1.

The target in this assay is Sf9 cells expressing receptor A or receptor B. Nature of the assay: cell-based or functional assay.

Ends that are not written are not given here.

B1: QPPLPRY-NH2 (SEQ ID NO: 3) (peptide)
peptide: QPPLPRY-NH2
As for B1, the EC50 of calcium fluorescence (FLIPR Calcium 6) in Sf9 cells expressing receptor A or receptor B was determined as 1.4 nM.

B2: QPPVPRY-NH2 (SEQ ID NO: 4) (peptide)
peptide: QPPVPRY-NH2
Regarding B2, the EC50 of calcium fluorescence (FLIPR Calcium 6) in Sf9 cells expressing receptor A or receptor B came to 12.7 nM.
